Reference: patent US20180296701A1

Target: CAR (receptor of the wild-type Ad) (human) (UniProt P78310)
Test: cell-based or functional assay

UniProt P78310, sequence (P78310 20-365): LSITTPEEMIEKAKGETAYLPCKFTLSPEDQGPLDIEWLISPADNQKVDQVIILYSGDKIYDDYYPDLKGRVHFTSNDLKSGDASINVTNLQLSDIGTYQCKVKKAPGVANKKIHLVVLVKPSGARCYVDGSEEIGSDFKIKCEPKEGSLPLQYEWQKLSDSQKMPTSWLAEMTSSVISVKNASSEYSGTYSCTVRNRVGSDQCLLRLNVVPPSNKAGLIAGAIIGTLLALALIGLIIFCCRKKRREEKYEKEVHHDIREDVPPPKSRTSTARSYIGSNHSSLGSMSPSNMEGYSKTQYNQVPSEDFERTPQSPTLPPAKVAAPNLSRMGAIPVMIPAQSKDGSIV

Substance: Ad knob protein
- decrease of intracellular introduction efficiency (GFP expression, flow cytometry) of wild-type Ad (naked dE1/GFP) in MIA PaCa-2 cells pre-treated with knob protein at 0.2 ug/mL: 76%
- decrease of intracellular introduction efficiency (GFP expression, flow cytometry) of wild-type Ad (naked dE1/GFP) in MIA PaCa-2 cells pre-treated with knob protein at 1 ug/mL: 92%
